Patent US20090197797A1, “USE OF HYALURONIC ACID AS A CARRIER MOLECULE FOR DIFFERENT CLASSES OF THERAPEUTIC ACTIVE AGENTS” (priority 2006, published 2009)

Assay: storage stability of HA-6-MTX checked by repeated NMR spectrum
Type: physicochemical
Conditions: 3-months storage at room temperature; compared with freshly prepared product
Protocol: A solution of HA-OMs:TBA salt from Example 10 (500 mg; 0.73 mmol) in DMSO (15 ml) was treated with a solution of methotrexate (833 mg; 1.83 mmol) in DMSO (10 ml) in the presence of solid cesium carbonate (596 mg; 1.83 mmol). The mixture was stirred under nitrogen at 80° C. for 18 h, whereupon it darkened with formation of solids. It was then cooled to ambient temperature, poured into 100 ml of water (pH 6.5), treated with 15 ml of saturated NaCl solution, and stirred for 1.5 h. Then solids were filtered off and the solution was ultrafiltered, concentrated and freeze-dried to give 131 mg of a yellow-brownish solid. […] HPLC analysis gave 32% w/w, corresponding to 40% mol/mol.

**Q.** For “6-O-Methotrexylhyaluronic Acid [Example 24]”, which “NMR spectrum repeated on the same sample after storage (stability of substitution degree)” value is on record?
**A.** The value was “the substitution degree is maintained and no by-products are formed”.
